{"source": "paper PMC7065948", "experiment_in_all_cases": "peptide or protein array", "key": {"[1]": {"target": "Tat SL8 epitope (Tat 28-35) (SIVmac239)"}, "[2]": {"target": "TTPESANL (TL8) (SIVmac251 strains)"}, "[3]": {"target": "PTPESANL (PL8) (SIVsm (isolated from sooty mangabeys) strains)"}}, "data": [{"substance": "rhesus MHC class I Mamu-A1*001 complex (heavy chain with human β2 microglobulin) (from UniProt P61769 21-119)", "values": [{"measurement": "binding score", "setting": "[1]", "result": 8.33}, {"measurement": "fluorescence intensity above the median (sd above the median)", "setting": "[1]", "result": 7.15}, {"measurement": "binding score", "setting": "[2]", "result": 8.72}, {"measurement": "binding score", "setting": "[3]", "result": 6.28}]}]}
